In patent US20210196823A1, “Methods of Treating Metabolic Disease” (Pfizer Inc., priority 2018, published 2021):
“Also recorded” adds a separate entry of the source.

Tests used:
[1] = tested on: BMP-target genes in the liver; assay: Short-term ERFE treatment in WT mice: liver BMP-target genes, serum and liver iron; assay type: in vivo; conditions: 200 μg i.v., 3 h
From the text: (a) Animal studies: Wild-type male C57BL/6 mice were purchased from Harlan Laboratories, UK. Embryos from Fam132b+/− mice on a mixed Sv129/C57BL/6 background were obtained from the Mutant Mouse Regional Resource Center (MMRRC) at UC Davis (strain 66; 12955-Fam132btm1Lex/Mmucd, ID MMRRC:032289-UCD) and backcrossed onto C57BL/6 background using marker-assisted accelerated backcrossing. Heterozygote pairs were mated to generate homozygous animals from which knockout and wild-type colonies were maintained. Animals were housed in individually ventilated cages in the Department of Biomedical Services, University of Oxford, and provided access to normal chow (163 ppm of iron, Special Diets Services 801700) and water ad libitum. All experiments were performed in 9-13 weeks old male mice. For EPO treatments, mice were injected intraperitoneally with 200 IU recombinant human EPO (Bio-Rad) in water or vehicle (water) daily for three consecutive days and culled 24 h after the last EPO injection. For ERFE treatments, mice were injected intravenously with 200 μg of recombinant mouse ERFE or vehicle (saline) and culled 3 h after treatment. Mice were euthanized in increasing CO2 concentrations.
(b) Serum iron analysis: Blood was taken by cardiac puncture immediately after euthanising mice and collected in BD EDTA or SST (serum) Microtainer tubes. Serum was prepared by centrifugation of clotted blood at 8000×g for 3 minutes in BD Microtainer SST tubes (Beckton Dickinson) and used for serum iron quantification using a Abbott Architect c16000 automated analyzer (Abbott Laboratories).
(c) Tissue non-heme iron measurement: Liver tissues were dried for 4 hours at 100° C., weighed and digested in 10% tricholoroacetic acid (Sigma)/30% hydrochloric acid (Sigma) for 20 hours at 65° C. A standard curve was generated using a dilution series of ferric ammonium citrate (Sigma) in the 10% (w/v) trichloroacetic acid/30% hydrochloric acid mixture. Non-heme iron content was determined colorimetrically by measuring absorbance at 535 nm following reaction with chromogen reagent containing 0.1% (w/v) bathophenoldisulphonic acid (Sigma)/0.8% thioglycolic acid (Sigma).
Three hours after the injections, mice were culled and serum and liver iron measured. […] Additionally, three hours after the injections, mice were culled and the liver harvested for analysis of liver gene expression for BMP-target genes.

[2] = tested on: SMAD1/5/8 phosphorylation in Huh7 cells; assay: Western blot of SMAD1/5/8 phosphorylation in Huh7 cells; assay type: cell-based
Description: (d) ERFE effects on BMP/SMAD signalling measured by SMAD 1/5/8 phosphorylation: To confirm the suppression of BMP/SMAD signalling, we analysed phosphorylation of SMAD1/5/8, required to transduce the signal leading to HAMP upregulation. Analysis was carried out by Western blot according to the following methodology: Cells were lysed at 4° C. using RIPA buffer (Thermo Scientific) containing protease/phosphatase inhibitor (Cell Signalling). Lysates were denatured at 95° C. and separated on a 10% SDS polyacrylamide gel (Bio-Rad), following the manufacturer's instruction. Protein sizes were estimated by using the Novex Sharp Pre-Stained Protein Ladder (life technologies). Protein was transferred to a nitrocellulose membrane, then blocked with milk/TBS for 1 h. Antibodies used were anti-P-SMAD 1/5 (S463s/465)/9(S465/467) (Cell signalling 13820S 1:500), anti-Smad1 (Cell Signalling 6944S 1:500), anti-β-actin-peroxidase (Sigma A3854 1:10 000), and Anti-rabbit IgG HRP conjugated (RnD systems HAP008 1:5000). […] In this case Huh7 cells were treated with mouse ERFE (10 μg/ml) or BMP6 and LDN, a small molecule inhibitor of BMPs, (100 nM), alone or in combination, for 30 min and pSMAD/SMAD ratios values were calculated by densitometry. Erythroferrone caused a decrease in SMAD phosphorylation relative to non-treated cells (FIG. 3D).

Huh7 cells = assay: HAMP and ID1 qRT-PCR in Huh7 cells treated with BMPs with or without mouse ERFE; assay type: cell-based; conditions: 2 nM BMP 2/6, BMP5, BMP6 or BMP7 + 10 μg/ml mouse ERFE, 6 h, serum-free media
Description: (b) Gene expression microarray: Microarray analysis of Huh7 cells treated with mouse or human erythroferrone was carried out to test the activity of erythroferrone on the BMP/SMAD signalling pathway. Generally cell treatments were carried out according to the following protocol: Huh7 and HepG2 were cultured in Dulbecco's Modified Eagle's Medium—High Glucose (Sigma), supplemented with 10% Fetal Bovine Serum (Sigma), 1% Penicillin-Streptomycin (Sigma) and 1% L-Glutamine (Sigma), unless otherwise indicated. Cells were plated 24 h before treatments in 24-well (gene expression analysis) or 12-well (protein analysis) cell culture plates. At the time of treatment, cells were washed with PBS and fresh media was added.
(c) RNA isolation, cDNA synthesis and qRT-PCR: Suppression of several BMP-target genes: HAMP, ID1, ID3, SMAD6 and SMAD7 was further confirmed by qRT-PCR. Cells were lysed and RNA was isolated using the RNeasy Plus kit (Qiagen), followed by RNA quantification and quality assessment using Nanodrop (Thermo Fisher). cDNA was synthesized using the High Capacity RNA-to-cDNA kit (Applied Biosystems). Gene expression was assessed using quantitative real-time PCR with Taqman Gene Expression Master Mix and inventoried Taqman Gene expression assays (Applied Biosystems) specific for the genes of interest according to the manufacturer's instructions. […]

B1: mouse ERFE: recombinant mouse erythroferrone (SEQ ID NO: 2); monoFC-muErfe is a monomeric FC murine ERFE fusion (protein, listed as Mus musculus)
chain: MASRRPVGARTLLACASLLAAMGLGVPESAEPVGTHARPQPPGAELPAPPANSPPEPIAHAHSVDPRDAWMLFVKQSDKGINSKRRSKARRLKLGLPGPPGPPGPQGPPGPFIPSEVLLKEFQLLLKGAVRQRESHLEHCTRDLPASGSPSRVPAAQELDSQDPGALLALLAATLAQGPRAPRVEAAFHCRLRRDVQVDRRALHELGIYYLPEVEGAFHRGPGLNLTSGQYTAPVAGFYALAATLHVALTEQPRKGPTRPRDRLRLLICIQSLCQHNASLETVMGLENSSELFISVNGVLYLQAGHYSVFLDNASGSSLTVRSGSHFSAILLGL
[1]
  liver iron: not affected
  serum iron: not affected
[1]; in comparison to the control
  serum hepcidin levels: reduced
[1]; vs inactive control Clip huERFE
  liver expression of Hamp and BMP-target genes: significantly reduced
[2]; Huh7, mouse ERFE 10 μg/ml with BMP6, 30 min
  SMAD phosphorylation after BMP6 stimulation: blunted the increase
[2]; Huh7, mouse ERFE 10 μg/ml, 30 min, baseline
  SMAD 1/5/8 phosphorylation relative to non-treated cells: decrease
Huh7 cells
  HAMP and ID1 expression / BMP/SMAD signalling in BMP-treated Huh7 cells: suppresses; also recorded: suppression
